T1: FRMPD1, Q5SYB0
T1 sequence (Q5SYB0 52-145, limits assumed, looked up): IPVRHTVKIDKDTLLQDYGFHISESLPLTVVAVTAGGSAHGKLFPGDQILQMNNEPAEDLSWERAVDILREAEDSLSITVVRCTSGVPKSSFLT

T2: GRIP1_3, Q9Y3R0
T2 sequence (Q9Y3R0 247-346, limits assumed, looked up): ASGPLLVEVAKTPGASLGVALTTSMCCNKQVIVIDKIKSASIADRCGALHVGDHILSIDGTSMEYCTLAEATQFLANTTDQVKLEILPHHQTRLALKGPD

T3: TJP3_3, O95049
T3 sequence (O95049 375-456, limits assumed, looked up): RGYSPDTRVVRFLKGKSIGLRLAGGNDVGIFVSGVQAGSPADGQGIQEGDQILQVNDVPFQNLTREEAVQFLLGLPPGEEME

T4: APBA2_1, Q99767
T4 sequence (Q99767 563-664, limits assumed, looked up): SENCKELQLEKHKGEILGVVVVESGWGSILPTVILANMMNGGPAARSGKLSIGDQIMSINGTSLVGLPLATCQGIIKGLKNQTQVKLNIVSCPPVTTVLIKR

T5: LNX2_3, Q8N448
T5 sequence (Q8N448 463-564, limits assumed, looked up): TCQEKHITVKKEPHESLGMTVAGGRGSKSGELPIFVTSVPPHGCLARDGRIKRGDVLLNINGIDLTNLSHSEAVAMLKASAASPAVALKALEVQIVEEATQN

T6: NHERF3_4, Q5T2W1
T6 sequence (Q5T2W1 373-468, limits assumed, looked up): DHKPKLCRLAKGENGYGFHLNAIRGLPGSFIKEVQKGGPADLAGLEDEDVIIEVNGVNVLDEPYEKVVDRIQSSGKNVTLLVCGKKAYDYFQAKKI

T7: PDZD7_3, Q9H5P4
T7 sequence (Q9H5P4 857-944, limits assumed, looked up): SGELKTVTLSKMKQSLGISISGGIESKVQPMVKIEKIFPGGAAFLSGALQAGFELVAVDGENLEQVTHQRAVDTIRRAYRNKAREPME

T8: LRRC7, Q96NW7
T8 sequence (Q96NW7 1440-1537, limits assumed, looked up): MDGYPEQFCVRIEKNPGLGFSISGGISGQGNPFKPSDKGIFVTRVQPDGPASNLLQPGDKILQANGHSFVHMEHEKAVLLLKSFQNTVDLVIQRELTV

T9: NHERF3_3, Q5T2W1
T9 sequence (Q5T2W1 238-333, limits assumed, looked up): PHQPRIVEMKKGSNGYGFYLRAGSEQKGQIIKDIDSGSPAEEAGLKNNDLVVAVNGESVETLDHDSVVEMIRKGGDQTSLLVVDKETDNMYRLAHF

T10: APBA2_2, Q99767
T10 sequence (Q99767 654-744, limits assumed, looked up): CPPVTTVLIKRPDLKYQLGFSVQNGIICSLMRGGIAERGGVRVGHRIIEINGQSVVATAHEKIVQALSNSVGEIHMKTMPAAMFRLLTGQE

T11: HTRA3, P83110
T11 sequence (P83110 354-453, limits assumed, looked up): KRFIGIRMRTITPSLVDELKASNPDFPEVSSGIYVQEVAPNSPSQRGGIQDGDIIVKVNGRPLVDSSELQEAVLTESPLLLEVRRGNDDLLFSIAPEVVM

T12: PDZD2_2, O15018
T12 sequence (O15018 329-429, limits assumed, looked up): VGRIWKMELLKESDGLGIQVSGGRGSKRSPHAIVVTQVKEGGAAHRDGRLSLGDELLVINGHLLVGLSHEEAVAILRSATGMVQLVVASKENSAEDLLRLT

T13: ARHGAP21, Q5T5U3
T13 sequence (Q5T5U3 45-169, limits assumed, looked up): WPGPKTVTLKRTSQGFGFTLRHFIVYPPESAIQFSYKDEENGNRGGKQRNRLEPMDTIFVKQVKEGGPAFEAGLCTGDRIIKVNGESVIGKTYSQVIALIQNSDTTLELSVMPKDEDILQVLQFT


target: TJP1_3, Q07157; assay: holdup assay; set-up: key: below the threshold = too weak to quantify, mostly under pKd 3.1 to 4; conditions: plain residues with an end cap or a label only (N-terminal biotin on a linker: ado-ado)
Sequence (Q07157 416-512): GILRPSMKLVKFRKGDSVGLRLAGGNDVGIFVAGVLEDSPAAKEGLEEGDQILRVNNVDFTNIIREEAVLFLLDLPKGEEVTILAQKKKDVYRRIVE

pKd	Binder
below the threshold	GQNMTVSVVI [PRLHR, P49683]

target: T1, FRMPD1, Q5SYB0; assay: holdup assay; set-up: key: below the threshold = too weak to quantify, mostly under pKd 3.1 to 4; conditions: plain residues with an end cap or a label only (N-terminal biotin on a linker: ado-ado)

pKd	Binder
below the threshold	GQNMTVSVVI [PRLHR, P49683]

target: T2, GRIP1_3, Q9Y3R0; assay: holdup assay; set-up: key: below the threshold = too weak to quantify, mostly under pKd 3.1 to 4; conditions: plain residues with an end cap or a label only (N-terminal biotin on a linker: ado-ado)

pKd	Binder
below the threshold	GQNMTVSVVI [PRLHR, P49683]

target: T3, TJP3_3, O95049; assay: holdup assay; set-up: key: below the threshold = too weak to quantify, mostly under pKd 3.1 to 4; conditions: plain residues with an end cap or a label only (N-terminal biotin on a linker: ado-ado)

pKd	Binder
below the threshold	GQNMTVSVVI [PRLHR, P49683]

target: Inadl_3, Q8NI35; assay: holdup assay; set-up: key: below the threshold = too weak to quantify, mostly under pKd 3.1 to 4; conditions: plain residues with an end cap or a label only (N-terminal biotin on a linker: ado-ado)
Sequence (Q8NI35 359-469): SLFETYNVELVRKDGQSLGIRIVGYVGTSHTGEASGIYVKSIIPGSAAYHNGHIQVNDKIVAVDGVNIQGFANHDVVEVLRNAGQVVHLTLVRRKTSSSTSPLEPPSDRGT

pKd	Binder
4.52	GQNMTVSVVI [PRLHR, P49683]

target: T4, APBA2_1, Q99767; assay: holdup assay; set-up: key: below the threshold = too weak to quantify, mostly under pKd 3.1 to 4; conditions: plain residues with an end cap or a label only (N-terminal biotin on a linker: ado-ado)

pKd	Binder
below the threshold	GQNMTVSVVI [PRLHR, P49683]

target: T5, LNX2_3, Q8N448; assay: holdup assay; set-up: key: below the threshold = too weak to quantify, mostly under pKd 3.1 to 4; conditions: plain residues with an end cap or a label only (N-terminal biotin on a linker: ado-ado)

pKd	Binder
3.61	GQNMTVSVVI [PRLHR, P49683]

target: T6, NHERF3_4, Q5T2W1; assay: holdup assay; set-up: key: below the threshold = too weak to quantify, mostly under pKd 3.1 to 4; conditions: plain residues with an end cap or a label only (N-terminal biotin on a linker: ado-ado)

pKd	Binder
3.73	GQNMTVSVVI [PRLHR, P49683]

target: T7, PDZD7_3, Q9H5P4; assay: holdup assay; set-up: key: below the threshold = too weak to quantify, mostly under pKd 3.1 to 4; conditions: plain residues with an end cap or a label only (N-terminal biotin on a linker: ado-ado)

pKd	Binder
4.4	GQNMTVSVVI [PRLHR, P49683]

target: Inadl_9, Q8NI35; assay: holdup assay; set-up: key: below the threshold = too weak to quantify, mostly under pKd 3.1 to 4; conditions: plain residues with an end cap or a label only (N-terminal biotin on a linker: ado-ado)
Sequence (Q8NI35 1530-1615): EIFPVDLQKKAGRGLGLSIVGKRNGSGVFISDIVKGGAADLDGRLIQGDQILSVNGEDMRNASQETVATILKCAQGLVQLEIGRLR

pKd	Binder
below the threshold	GQNMTVSVVI [PRLHR, P49683]

target: T8, LRRC7, Q96NW7; assay: holdup assay; set-up: key: below the threshold = too weak to quantify, mostly under pKd 3.1 to 4; conditions: plain residues with an end cap or a label only (N-terminal biotin on a linker: ado-ado)

pKd	Binder
below the threshold	GQNMTVSVVI [PRLHR, P49683]

target: T9, NHERF3_3, Q5T2W1; assay: holdup assay; set-up: key: below the threshold = too weak to quantify, mostly under pKd 3.1 to 4; conditions: plain residues with an end cap or a label only (N-terminal biotin on a linker: ado-ado)

pKd	Binder
4.02	GQNMTVSVVI [PRLHR, P49683]

target: T10, APBA2_2, Q99767; assay: holdup assay; set-up: key: below the threshold = too weak to quantify, mostly under pKd 3.1 to 4; conditions: plain residues with an end cap or a label only (N-terminal biotin on a linker: ado-ado)

pKd	Binder
below the threshold	GQNMTVSVVI [PRLHR, P49683]

target: IL16_3, Q14005; assay: holdup assay; set-up: key: below the threshold = too weak to quantify, mostly under pKd 3.1 to 4; conditions: plain residues with an end cap or a label only (N-terminal biotin on a linker: ado-ado)
Sequence (Q14005 1107-1207): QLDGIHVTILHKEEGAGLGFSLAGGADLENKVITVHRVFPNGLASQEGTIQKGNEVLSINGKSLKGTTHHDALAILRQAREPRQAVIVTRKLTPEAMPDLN

pKd	Binder
below the threshold	GQNMTVSVVI [PRLHR, P49683]

target: DLG1_1, Q12959; assay: holdup assay; set-up: key: below the threshold = too weak to quantify, mostly under pKd 3.1 to 4; conditions: plain residues with an end cap or a label only (N-terminal biotin on a linker: ado-ado)

pKd	Binder
below the threshold	GQNMTVSVVI [PRLHR, P49683]

target: DLG2_3, Q15700; assay: holdup assay; set-up: key: below the threshold = too weak to quantify, mostly under pKd 3.1 to 4; conditions: plain residues with an end cap or a label only (N-terminal biotin on a linker: ado-ado)

pKd	Binder
3.74	GQNMTVSVVI [PRLHR, P49683]

target: Inadl_5, Q8NI35; assay: holdup assay; set-up: key: below the threshold = too weak to quantify, mostly under pKd 3.1 to 4; conditions: plain residues with an end cap or a label only (N-terminal biotin on a linker: ado-ado)
Sequence (Q8NI35 673-780): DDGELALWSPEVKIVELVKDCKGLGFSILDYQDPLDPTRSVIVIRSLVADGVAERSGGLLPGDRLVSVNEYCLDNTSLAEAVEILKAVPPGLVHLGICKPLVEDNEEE

pKd	Binder
below the threshold	GQNMTVSVVI [PRLHR, P49683]

target: T11, HTRA3, P83110; assay: holdup assay; set-up: key: below the threshold = too weak to quantify, mostly under pKd 3.1 to 4; conditions: plain residues with an end cap or a label only (N-terminal biotin on a linker: ado-ado)

pKd	Binder
3.72	GQNMTVSVVI [PRLHR, P49683]

target: FRMPD3, Q5JV73; assay: holdup assay; set-up: key: below the threshold = too weak to quantify, mostly under pKd 3.1 to 4; conditions: plain residues with an end cap or a label only (N-terminal biotin on a linker: ado-ado)
Sequence (Q5JV73 12-100): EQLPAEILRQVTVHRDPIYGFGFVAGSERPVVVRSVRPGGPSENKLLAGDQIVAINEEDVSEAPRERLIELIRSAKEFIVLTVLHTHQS

pKd	Binder
below the threshold	GQNMTVSVVI [PRLHR, P49683]

target: GOPC, Q9HD26; assay: holdup assay; set-up: key: below the threshold = too weak to quantify, mostly under pKd 3.1 to 4; conditions: plain residues with an end cap or a label only (N-terminal biotin on a linker: ado-ado)

pKd	Binder
below the threshold	GQNMTVSVVI [PRLHR, P49683]

target: LNX1_1, Q8TBB1; assay: holdup assay; set-up: key: below the threshold = too weak to quantify, mostly under pKd 3.1 to 4; conditions: plain residues with an end cap or a label only (N-terminal biotin on a linker: ado-ado)
Sequence (Q8TBB1 261-371): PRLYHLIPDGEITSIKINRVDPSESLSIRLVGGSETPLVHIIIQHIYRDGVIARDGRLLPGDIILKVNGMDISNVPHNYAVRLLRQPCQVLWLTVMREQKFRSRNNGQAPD

pKd	Binder
3.47	GQNMTVSVVI [PRLHR, P49683]

target: GRIP2_7, Q9C0E4; assay: holdup assay; set-up: key: below the threshold = too weak to quantify, mostly under pKd 3.1 to 4; conditions: plain residues with an end cap or a label only (N-terminal biotin on a linker: ado-ado)
Sequence (Q9C0E4 934-1023): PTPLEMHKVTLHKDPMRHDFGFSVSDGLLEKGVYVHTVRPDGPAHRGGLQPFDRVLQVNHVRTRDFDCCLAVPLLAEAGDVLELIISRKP

pKd	Binder
below the threshold	GQNMTVSVVI [PRLHR, P49683]

target: MAST1, Q9Y2H9; assay: holdup assay; set-up: key: below the threshold = too weak to quantify, mostly under pKd 3.1 to 4; conditions: plain residues with an end cap or a label only (N-terminal biotin on a linker: ado-ado)
Sequence (Q9Y2H9 962-1065): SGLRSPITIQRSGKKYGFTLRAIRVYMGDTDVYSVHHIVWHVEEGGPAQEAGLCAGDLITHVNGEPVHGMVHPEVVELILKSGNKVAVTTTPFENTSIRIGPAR

pKd	Binder
3.9	GQNMTVSVVI [PRLHR, P49683]

target: T12, PDZD2_2, O15018; assay: holdup assay; set-up: key: below the threshold = too weak to quantify, mostly under pKd 3.1 to 4; conditions: plain residues with an end cap or a label only (N-terminal biotin on a linker: ado-ado)

pKd	Binder
below the threshold	GQNMTVSVVI [PRLHR, P49683]

target: T13, ARHGAP21, Q5T5U3; assay: holdup assay; set-up: key: below the threshold = too weak to quantify, mostly under pKd 3.1 to 4; conditions: plain residues with an end cap or a label only (N-terminal biotin on a linker: ado-ado)

pKd	Binder
below the threshold	GQNMTVSVVI [PRLHR, P49683]

— article PMC9482650, “Quantitative fragmentomics allow affinity mapping of interactomes” (Nature Communications, 2022)
